Target: the molecule itself
Experiment: cryo-EM structure; TRPV5 in lipid nanodiscs (MSP2N2, soy polar lipids), incubated with 400 uM oleoyl-CoA or 400 uM diC8-PI(4,5)P2 for 45 min; 20 mM HEPES pH 8.0, 150 mM NaCl, 2 mM TCEP; C4 symmetry imposed

B1: full-length rabbit TRPV5 (natural protein, UniProt Q9XSM3 1-730, looked up)
chain: MGACPPKAKGPWAQLQKLLISWPVGEQDWEQYRDRVNMLQQERIRDSPLLQAAKENDLRLLKILLLNQSCDFQQRGAVGETALHVAALYDNLEAATLLMEAAPELAKEPALCEPFVGQTALHIAVMNQNLNLVRALLARGASVSARATGAAFRRSPHNLIYYGEHPLSFAACVGSEEIVRLLIEHGADIRAQDSLGNTVLHILILQPNKTFACQMYNLLLSYDEHSDHLQSLELVPNHQGLTPFKLAGVEGNTVMFQHLMQKRKHVQWTCGPLTSTLYDLTEIDSWGEELSFLELVVSSKKREARQILEQTPVKELVSFKWKKYGRPYFCVLASLYILYMICFTTCCIYRPLKLRDDNRTDPRDITILQQKLLQEAYVTHQDNIRLVGELVTVTGAVIILLLEIPDIFRVGASRYFGQTILGGPFHVIIITYASLVLLTMVMRLTNMNGEVVPLSFALVLGWCSVMYFARGFQMLGPFTIMIQKMIFGDLMRFCWLMAVVILGFASAFHITFQTEDPNNLGEFSDYPTALFSTFELFLTIIDGPANYSVDLPFMYCITYAAFAIIATLLMLNLFIAMMGDTHWRVAQERDELWRAQVVATTVMLERKMPRFLWPRSGICGYEYGLGDRWFLRVENHHDQNPLRVLRYVEAFKCSDKEDGQEQLSEKRPSTVESGMLSRASVAFQTPSLSRTTSQSSNSHRGWEILRRNTLGHLNLGLDLGEGDGEEVYHF
notes: TRPV5, rabbit, full length, in a YepM vector; also called Transient receptor potential vanilloid 5; TRPV5_(CoA Open)
binding result: binds

Source: paper PMC10514044, “Structural basis of the activation of TRPV5 channels by long-chain acyl-Coenzyme-A” (Nature Communications, 2023)
